Laboratory results taken from the supplement of paper PMC10724198.
± gives the standard deviation of the averaged measurements.

Tests used:
Saccharomyces cerevisiae [1] = assay: protein stability index of tFT-peptide fusion (C-terminal peptide) (PSI (0-1 scale)); higher = more stable (slower turnover)
Procedure: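 MPS profiling in S. cerevisiae of the tFT-X12 degron library: putative degron peptides plus stable controls, 12 aa, fused to the C-terminus of a sfGFP-mCherry timer. Cells are FACS-sorted into 8 mCherry/sfGFP bins and deep-sequenced. PSI runs from 0 (unstable) to 1 (stable). Backgrounds are wild type, das1Δ and doa10Δ at 30 °C, and wild type, das1Δ, cdc34-1 and cdc53-1 at 37 °C; 2-3 technical replicates each.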

Saccharomyces cerevisiae [2] = assay: as above; conditions: genetic background: wild type; temperature: 30 C
[3] = genetic background: cdc34-1, temperature: 37 C
[4] = genetic background: cdc53-1, temperature: 37 C
[5] = genetic background: das1 deletion, temperature: 30 C
[6] = genetic background: das1 deletion, temperature: 37 C
[7] = genetic background: doa10 deletion, temperature: 30 C
[8] = genetic background: wild type, temperature: 30 C
[9] = genetic background: wild type, temperature: 37 C
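Note: PSI is a weighted mean of sequencing reads over stability bins, variants kept only with over 10 reads, mCherry proximal and sfGFP distal, peptide attached via GGGS linker.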

Sequence	protein stability index (Saccharomyces cerevisiae [1]; [3])	protein stability index (Saccharomyces cerevisiae [1]; [4])	protein stability index (Saccharomyces cerevisiae [1]; [5])	protein stability index (Saccharomyces cerevisiae [1]; [6])	protein stability index (Saccharomyces cerevisiae [1]; [7])	protein stability index (Saccharomyces cerevisiae [1]; [8])	protein stability index (Saccharomyces cerevisiae [1]; [9])	protein stability index (Saccharomyces cerevisiae [2])
VVIWGMLLCGLG	0.447 ± 0.0096	0.502 ± 0.009	0.353 ± 0.029	0.539 ± 0.026	0.326 ± 0.015	0.348 ± 0.018	0.487 ± 0.016	0.44 ± 0.029
KTLCFLCRTRNS	0.671 ± 0.025	0.73 ± 0.011	0.668 ± 0.027	0.76 ± 0.013	0.387 ± 0.014	0.433 ± 0.023	0.658 ± 0.017	0.52 ± 0.033
AGLAPCFLLFVC	0.261 ± 0.027	0.343 ± 0.019	0.3 ± 0.033	0.44 ± 0.0063	0.0908 ± 0.024	0.0981 ± 0.021	0.0938 ± 0.026	0.133 ± 0.019
CTWGRYGGIWLR	0.0548 ± 0.007	0.0483 ± 0.033	0.136 ± 0.062	0.144 ± 0.013	0.668 ± 0.034	0.117 ± 0.023	0.11 ± 0.016	0.254 ± 0.058
LLSLTLALPLAA	0.392 ± 0.0064	0.434 ± 0.014	0.337 ± 0.034	0.461 ± 0.0074	0.296 ± 0.0033	0.349 ± 0.022	0.4518 ± 0.0011	0.455 ± 0.047
ISVFLFAFFFIP	0.447 ± 0.0098	0.553 ± 0.024	0.395 ± 0.03	0.531 ± 0.013	0.275 ± 0.016	0.306 ± 0.012	0.425 ± 0.01	0.356 ± 0.031
FCLSPILLLRFL	0.268 ± 0.004	0.261 ± 0.012	0.355 ± 0.024	0.439 ± 0.0047	0.219 ± 0.022	0.174 ± 0.024	0.225 ± 0.012	0.213 ± 0.034
TVLPCVLLFLRG	0.61 ± 0.026	0.632 ± 0.012	0.508 ± 0.035	0.613 ± 0.0086	0.506 ± 0.022	0.484 ± 0.037	0.603 ± 0.03	0.485 ± 0.013
KNKRQKNTIRKQ	0.669 ± 0.017	0.682 ± 0.056	0.654 ± 0.034	0.757 ± 0.089	0.2745 ± 0.00035	0.346 ± 0.025	0.573 ± 0.0086	0.463 ± 0.016
FLGPYTPGMYLA	0.656 ± 0.031	0.7393 ± 0.0022	0.658 ± 0.015	0.7435 ± 0.0044	0.208 ± 0.011	0.258 ± 0.019	0.482 ± 0.0086	0.359 ± 0.037
NSFASFVVVFVI	0.371 ± 0.018	0.437 ± 0.047	0.264 ± 0.034	0.512 ± 0.015	0.1956 ± 0.00071	0.227 ± 0.036	0.472 ± 0.03	0.34 ± 0.036
RQFRNPLYAFVC	0.496 ± 0.043	0.687 ± 0.011	0.566 ± 0.019	0.697 ± 0.014	0.124 ± 0.0069	0.137 ± 0.0092	0.187 ± 0.035	0.193 ± 0.021
VVIGAVLFVVVR	0.0736 ± 0.0063	0.21 ± 0.015	0.157 ± 0.028	0.291 ± 0.0065	0.12 ± 0.0087	0.134 ± 0.035	0.25 ± 0.005	0.29 ± 0.012
HLCVLWVLLLCF	0.286 ± 0.032	0.323 ± 0.0031	0.26 ± 0.025	0.383 ± 0.011	0.289 ± 0.015	0.246 ± 0.019	0.368 ± 0.024	0.333 ± 0.011
LCFEQRYIGVLV	0.305 ± 0.045	0.38376 ± 5e-05	0.279 ± 0.035	0.4433 ± 0.0021	0.227 ± 0.008	0.251 ± 0.03	0.393 ± 0.018	0.372 ± 0.0085
VFRVLLSLFSTL	0.657 ± 0.021	0.7335 ± 0.0063	0.653 ± 0.018	0.738 ± 0.0053	0.289 ± 0.019	0.306 ± 0.023	0.4804 ± 0.0029	0.408 ± 0.0095
GFDVFWLWVVVA	0.0676 ± 0.024	0.208 ± 0.017	0.192 ± 0.032	0.307 ± 0.022	0.0812 ± 0.011	0.103 ± 0.027	0.0966 ± 0.015	0.125 ± 0.019
DKKNCIIIYYKQ	0.479 ± 0.053	0.706 ± 0.074	0.653 ± 0.021	0.6973 ± 0.0046	0.0802 ± 0.03	0.0804 ± 0.024	0.106 ± 0.011	0.147 ± 0.062
CLVWLVRIIVLD	0.199 ± 0.019	0.268 ± 0.026	0.201 ± 0.031	0.366 ± 0.039	0.206 ± 0.005	0.195 ± 0.048	0.32 ± 0.025	0.298 ± 0.048
NKEEHQQKQRIH	0.636 ± 0.04	0.711 ± 0.02	0.663 ± 0.02	0.719 ± 0.031	0.619 ± 0.057	0.646 ± 0.049	0.698 ± 0.00079	0.461 ± 0.15

Sequence	protein stability index (Saccharomyces cerevisiae [1]; [3])	protein stability index (Saccharomyces cerevisiae [1]; [4])	protein stability index (Saccharomyces cerevisiae [1]; [5])	protein stability index (Saccharomyces cerevisiae [1]; [6])	protein stability index (Saccharomyces cerevisiae [1]; [7])	protein stability index (Saccharomyces cerevisiae [1]; [8])	protein stability index (Saccharomyces cerevisiae [1]; [9])	protein stability index (Saccharomyces cerevisiae [2])
VGVIGWGVLGVG	0.475 ± 0.04	0.548 ± 0.0055	0.481 ± 0.011	0.541 ± 0.011	0.4866 ± 0.00011	0.481 ± 0.013	0.536 ± 0.0097	0.5 ± 0.01
SILVLGRSVGVG	0.436 ± 0.026	0.4817 ± 0.00055	0.44 ± 0.027	0.521 ± 0.023	0.451 ± 0.0099	0.442 ± 0.01	0.49 ± 0.018	0.519 ± 0.07
FVFLCLLCISSF	0.202 ± 0.0059	0.286 ± 0.011	0.214 ± 0.027	0.355 ± 0.006	0.193 ± 0.01	0.2 ± 0.03	0.3152 ± 0.0017	0.278 ± 0.012
PRVPILVVFCSF	0.423 ± 0.013	0.452 ± 0.014	0.286 ± 0.041	0.532 ± 0.016	0.22 ± 0.0097	0.257 ± 0.02	0.463 ± 0.048	0.402 ± 0.063
LGHSLVRFVYCF	0.46 ± 0.023	0.498 ± 0.024	0.411 ± 0.025	0.538 ± 0.011	0.349 ± 0.0072	0.357 ± 0.029	0.468 ± 0.016	0.451 ± 0.0073
CAIHIKIQMSVE	0.0158 ± 0.0046	0.0731 ± 0.0079	0.0577 ± 0.019	0.136 ± 0.031	0.0457 ± 0.0051	0.0488 ± 0.02	0.128 ± 0.028	0.0995 ± 0.011
RALCPVPLLASS	0.55 ± 0.0098	0.59 ± 0.034	0.435 ± 0.026	0.5981 ± 0.00094	0.427 ± 0.026	0.455 ± 0.018	0.553 ± 0.024	0.502 ± 0.1
AGVRLIFLFWGF	0.521 ± 0.05	0.608 ± 0.027	0.43 ± 0.037	0.6496 ± 0.0056	0.444 ± 0.028	0.407 ± 0.054	0.621 ± 0.036	0.4945 ± 0.0016
SRFPARCLLCCW	0.531 ± 0.029	0.52 ± 0.021	0.454 ± 0.036	0.583 ± 0.017	0.4309 ± 0.002	0.449 ± 0.018	0.546 ± 0.007	0.501 ± 0.031
MRMEGPLALSVR	0.5519 ± 0.005	0.558 ± 0.016	0.395 ± 0.028	0.558 ± 0.0087	0.353 ± 0.019	0.403 ± 0.017	0.551 ± 0.006	0.48 ± 0.011
GRSVLIGLIVRC	0.417 ± 0.015	0.433 ± 0.014	0.332 ± 0.048	0.53715 ± 0.00026	0.437 ± 0.023	0.349 ± 0.022	0.479 ± 0.0083	0.4701 ± 0.0034
TCRASLRRIVVA	0.514 ± 0.024	0.538 ± 0.03	0.381 ± 0.031	0.5813 ± 0.0056	0.222 ± 0.01	0.255 ± 0.042	0.459 ± 0.015	0.358 ± 0.034
CVFVWFWCMTWV	0.171 ± 0.089	0.164 ± 0.016	0.0811 ± 0.048	0.313 ± 0.15	0.105 ± 0.069	0.117 ± 0.11	0.345 ± 0.13	0.168 ± 0.0053
IYVSVMLLRYRF	0.41 ± 0.042	0.428 ± 0.018	0.342 ± 0.035	0.493 ± 0.0097	0.3455 ± 0.00077	0.331 ± 0.042	0.481 ± 0.03	0.465 ± 0.043
RSWMRHVLRVAS	0.543 ± 0.048	0.701 ± 0.0072	0.525 ± 0.026	0.719 ± 0.025	0.0958 ± 0.0031	0.104 ± 0.01	0.154 ± 0.013	0.194 ± 0.004
FCRPCCLIVFVV	0.236 ± 0.026	0.295 ± 0.029	0.253 ± 0.036	0.467 ± 0.0059	0.122 ± 0.0099	0.128 ± 0.019	0.126 ± 0.019	0.184 ± 0.037
VCFLLLLPALLI	0.466 ± 0.031	0.465 ± 0.014	0.398 ± 0.026	0.516 ± 0.0089	0.422 ± 0.0094	0.393 ± 0.016	0.512 ± 0.027	0.432 ± 0.053
LRTLVFIWFMYV	0.296 ± 0.045	0.481 ± 0.058	0.273 ± 0.035	0.4851 ± 0.0041	0.126 ± 0.0092	0.143 ± 0.024	0.2612 ± 0.00061	0.19 ± 0.067
IDTSRAATLLPA	0.675 ± 0.021	0.7136 ± 0.0016	0.606 ± 0.017	0.722 ± 0.011	0.611 ± 0.016	0.631 ± 0.028	0.7161 ± 0.0029	0.739 ± 0.012
